The chains are these.
B1: Azoarcus group I ribozyme (parent)
chain: GUGCCUUGCGCCGGGAAACCACGCAAGGGAUGGUGUCAAAUUCGGCGAAACCUAAGCGCCCGCCCGGGCGUAUGGCAACGCCGAGCCAAGCUUCGGCGCCUGCGCCGAUGAAGGUGUAGAGACUAGACGGCACCCACCUAAGGCAAACGCUAUGGUGAAGGCAUAGUCCAGGGAGUGGCGAAAGUCACACAAACCGG

These results are taken from the RNAGym collection of RNA variant scans (doi:10.1093/molbev/msab373).

In this data set the parent is B1. In words: reverse-splicing fitness (ratio to wild type); higher = more active; in vitro selection; Mg2+ level not given. In outline: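 An in vitro group I ribozyme library with randomized positions was T7-transcribed and gel-purified. In triplicate, 10 pmol RNA in EPPS pH 7.5 was reacted with 50 pmoles of a 30-nt RNA substrate for 1 h at 37 °C across several added MgCl2 levels (1–48 mM), then stopped with EDTA. Products were reverse transcribed from a substrate-complementary primer, PCR-amplified and sequenced (HiSeq 4000). Fitness is a variant's read proportion after selection over that before, normalised to wild type.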
As for GUGCCUUGCGCCGGGAAACCACGCAAGGGAUGGUGUCAAAUUCGGCGAAACCUAAGCGCCCGCCCGGGCGUAUGGCAACGCGGAGCCAAGCUUCGGCGCCUGCGCCGAUGCAGGUGUAGGGACUAGACGGCACCCACCUAAGGCUAACGGUAUGGUGAAGGCAUAGUCCAGGGAGUGGCGAAAGUCACACAAACCGG, the reverse-splicing fitness is 0.00698.

As for GUGCCUUGCGCCGGGAAACCACGCAAGGGAUGGUGUCAAAUUCGGCGAAACCUAAGCGCCCGCCCGGGCGUAUGGCAACGCGGAGCCAAGCUUCGGCGCCUGCGCCGAUGCAGGUGUAGGGACUAGACGGCACCCACCUAAGGCUAACGAUAUGGUGAAGGCAUAGUCGAGGGAGCGGCGAAAGUCACACAAACCGG, the reverse-splicing fitness stood at 0.0153.

Regarding GUGCCUUGCGCCGGGAAACCACGCAAGGGAUGGUGUCAAAUUCGGCGAAACCUAAGCGCCCGCCCGGGCGUAUGGCAACGCGGAGCCAAGCUUCGGCGCCUGCGCCGAUGCAGGUGUAGGGACUAGACGGCACCCACCUAAGGCUAACGAUAUGGUGAAGGCAUAGUCGAGGGAGAGGCGAAAGUCACACAAACCGG, the reverse-splicing fitness was found to be 0.0126.

For GUGCCUUGCGCCGGGAAACCACGCAAGGGAUGGUGUCAAAUUCGGCGAAACCUAAGCGCCCGCCCGGGCGUAUGGCAACGCGGAGCCAAGCUUCGGCGCCUGCGCCGAUGCAGGUGUAGGGACUAGACGGCACCCACCUAAGGCUAACGAUAUGGUGAAGGCAUAGUCGAGGGAGGGGCGAAAGUCACACAAACCGG, the reverse-splicing fitness was found to be 0.00522.

As to GUGCCUUGCGCCGGGAAACCACGCAAGGGAUGGUGUCAAAUUCGGCGAAACCUAAGCGCCCGCCCGGGCGUAUGGCAACGCGGAGCCAAGCUUCGGCGCCUGCGCCGAUGCAGGUGUAGGGACUAGACGGCACCCACCUAAGGCUAACGAUAUGGUGAAGGCAUAGUCAAGGGAGGGGCGAAAGUCACACAAACCGG, the reverse-splicing fitness was 0.00581.

Regarding GUGCCUUGCGCCGGGAAACCACGCAAGGGAUGGUGUCAAAUUCGGCGAAACCUAAGCGCCCGCCCGGGCGUAUGGCAACGCGGAGCCAAGCUUCGGCGCCUGCGCCGAUGCAGGUGUAGGGACUAGACGGCACCCACCUAAGGCUAACGAUAUGGUGAAGGCAUAGUCAAGGGAGAGGCGAAAGUCACACAAACCGG, the reverse-splicing fitness turned out to be 0.0128.

Consider GUGCCUUGCGCCGGGAAACCACGCAAGGGAUGGUGUCAAAUUCGGCGAAACCUAAGCGCCCGCCCGGGCGUAUGGCAACGCGGAGCCAAGCUUCGGCGCCUGCGCCGAUGCAGGUGUAGGGACUAGACGGCACCCACCUAAGGCUAACGAUAUGGUGAAGGCAUAGUCAAGGGAGCGGCGAAAGUCACACAAACCGG, for which the reverse-splicing fitness came out at 0.0105.

Take GUGCCUUGCGCCGGGAAACCACGCAAGGGAUGGUGUCAAAUUCGGCGAAACCUAAGCGCCCGCCCGGGCGUAUGGCAACGCGGAGCCAAGCUUCGGCGCCUGCGCCGAUGCAGGUGUAGGGACUAGACGGCACCCACCUAAGGCUAACGGUAUGGUGAAGGCAUAGUCUAGGGAGAGGCGAAAGUCACACAAACCGG: the reverse-splicing fitness came out at 0.00847.

As for GUGCCUUGCGCCGGGAAACCACGCAAGGGAUGGUGUCAAAUUCGGCGAAACCUAAGCGCCCGCCCGGGCGUAUGGCAACGCGGAGCCAAGCUUCGGCGCCUGCGCCGAUGCAGGUGUAGGGACUAGACGGCACCCACCUAAGGCUAACGGUAUGGUGAAGGCAUAGUCUAGGGAGCGGCGAAAGUCACACAAACCGG, the reverse-splicing fitness is 0.0118.

For GUGCCUUGCGCCGGGAAACCACGCAAGGGAUGGUGUCAAAUUCGGCGAAACCUAAGCGCCCGCCCGGGCGUAUGGCAACGCGGAGCCAAGCUUCGGCGCCUGCGCCGAUGCAGGUGUAGGGACUAGACGGCACCCACCUAAGGCUAACGGUAUGGUGAAGGCAUAGUCUAGGGAGGGGCGAAAGUCACACAAACCGG, the reverse-splicing fitness came out at 0.00536.

Consider GUGCCUUGCGCCGGGAAACCACGCAAGGGAUGGUGUCAAAUUCGGCGAAACCUAAGCGCCCGCCCGGGCGUAUGGCAACGCGGAGCCAAGCUUCGGCGCCUGCGCCGAUGCAGGUGUAGGGACUAGACGGCACCCACCUAAGGCUAACGGUAUGGUGAAGGCAUAGUCGAGGGAGAGGCGAAAGUCACACAAACCGG, for which the reverse-splicing fitness is 0.0071.

On to GUGCCUUGCGCCGGGAAACCACGCAAGGGAUGGUGUCAAAUUCGGCGAAACCUAAGCGCCCGCCCGGGCGUAUGGCAACGCGGAGCCAAGCUUCGGCGCCUGCGCCGAUGCAGGUGUAGGGACUAGACGGCACCCACCUAAGGCUAACGGUAUGGUGAAGGCAUAGUCGAGGGAGCGGCGAAAGUCACACAAACCGG, for which the reverse-splicing fitness turned out to be 0.00521.

With GUGCCUUGCGCCGGGAAACCACGCAAGGGAUGGUGUCAAAUUCGGCGAAACCUAAGCGCCCGCCCGGGCGUAUGGCAACGCGGAGCCAAGCUUCGGCGCCUGCGCCGAUGCAGGUGUAGGGACUAGACGGCACCCACCUAAGGCUAACGGUAUGGUGAAGGCAUAGUCGAGGGAGGGGCGAAAGUCACACAAACCGG, the reverse-splicing fitness was found to be 0.00512.

As for GUGCCUUGCGCCGGGAAACCACGCAAGGGAUGGUGUCAAAUUCGGCGAAACCUAAGCGCCCGCCCGGGCGUAUGGCAACGCGGAGCCAAGCUUCGGCGCCUGCGCCGAUGCAGGUGUAGGGACUAGACGGCACCCACCUAAGGCUAACGAUAUGGUGAAGGCAUAGUCGAGGGAGUGGCGAAAGUCACACAAACCGG, the reverse-splicing fitness stood at 0.00764.

As to GUGCCUUGCGCCGGGAAACCACGCAAGGGAUGGUGUCAAAUUCGGCGAAACCUAAGCGCCCGCCCGGGCGUAUGGCAACGCGGAGCCAAGCUUCGGCGCCUGCGCCGAUGCAGGUGUAGGGACUAGACGGCACCCACCUAAGGCUAACGAUAUGGUGAAGGCAUAGUCUAGGGAGUGGCGAAAGUCACACAAACCGG, the reverse-splicing fitness came out at 0.00666.
